Measurements from the DeepSol protein solubility set.

Assay: soluble on expression in E. coli; label from the status in PepcDB or PDB records

Sequence	soluble on expression in E. coli
MSLATTVKIATISPLSGSSSNLGLQIKNGAQLAVNEYKAEFAKLGMNLSLVAYDDQADPATGTAAARRVVADKNVLAVVGTLNTGVAIPASQALSTSKVAMVSPANTGTKVTDRGLKNMNRICARDDAQGPAGADFMVSTLKVKKVYVINDKTPYGEGLSGEAEKRLKAKGVQIVQSEGVAAEERDFTAIITKIQTLKPDAIYFGGLYGQIGPFAQQLRAKGVQVPLIGGDGMDSDELAKLAGAQGANNIYFTTVAPPLDSVPAAKTMAGNFKKAFGSDVQGYGIMGYDSAKVVLQGILDAAKKNGNKAPSRAQVETAIRSGTFGNLLTGTVQFDKNGDRKAGKMYVIAIKNAQRSTAGQVNVLREGHHHHHH	soluble
MKIGIVGATGYGGTELVRILSHHPHAEECILYSSSGEGNVYSEGYPHLTGLADQQLKPIDMNTIKHEIDIMFLAAPPGVSSELTPKLADAGITVIDLSGDLRIKEPAEYEKWYKRTAAPKAVIQEAVYGLAELNQLQIQQAKLIANPGCFPTAVLLGLAPLAQKKLLDESFVIVDAKTGVSGAGRKASMGTHFSELNDNFKIYKVNEHQHTPEIEQALNEWQPGLGPITFSAHLVPMTRGIMATMYTRLTCDLTADDLHDLYSEFYQDSYFVRVRPKGQYPQTKEVYGSNFCDIAVTLDERTNRVTIVSVIDNLMKGAAGQAVQNFNLMNGWNEETGLTIITPIYP	not soluble
MVLEKIEPAQEEHEKYHSNVKELSHKFGIPNLVARQIVNSCAQCQQKGEAIHGQVNAELGTWQMDCTHLEGKIIIVAVHVASGFIEAEVIPQESGRQTALFLLKLASRWPITHLHTDNGANFTSQEVKMVAWWIGIEQSFGVPYNPQSQGVVEAMNHHLKNQISRIREQANTIETIVLMAVHCMNFKRRGGIGDMTPSERLINMITTEQE	soluble
MPLVSMKEMLNKALEGKYAVGQFNMNNLEWTQAILAAAEEEKSPVILGVSEGAARHMTGFKTVVAMVKALIEEMNITVPVAIHLDHGSSFEKCKEAIDAGFTSVMIDASHHPFEENVETTKKVVEYAHARNVSVEAELGTVGGQEDDVIAEGVIYADPAECKHLVEATGIDCLAPALGSVHGPYKGEPNLGFAEMEQVRDFTGVPLVLHGGTGIPTADIEKAISLGTSKINVNTENQIEFTKAVREVLNKDQEVYDPRKFIGPGRDAIKATVIGKIREFGSNGKA	not soluble
MGSDKIHHHHHHMTYREYKEPATRAGGIIELPHRTDANRFLASLGVAERATLASHLQLVHVKSGQVLCEPGMALEHVYLPVTTVISIQYASSDGMTLEIAEIGNEGIVSPQLVGTDGASPCRVITCRDGFSYRLGARVLSNLLEESAQTRQAIFRCTHLLMAQAKQISFCSRHHVLKNQLCRWFLLAYDRSRSVEIQVTHSMLAQMLGVRRETVTDAAGDIQKMGLIRQYRSSIILVDLPGLDAQSCGCHAIIREEMKKIQAAPTSASGTLTELRS	not soluble
MAHHHHHHMSRFPEARKQSVQVTRHCGIASQLVTEVNGRNLTHLSVLEQEMLASSNVTEHSRQMMDVVQDPKTDIDDALRMVMLYALRYEKVGGNNTAQLKEMLLKRNCPMERISLIDRLLEYGGADKRLHELFRTSTGHILKIVAKTVGQFGKDIQNVLTQHVPLMKKVINRVYNGTLSEQKYPVQEVVGSPISVSAVPTIRAKDIIIVMVGGVTYSEAMLLYQINQGQVSNNVESLMNLGKNVTRLVSGDSTAKSASGEPYTEKIEARVTLLSTSMIDSKDFIHSLPS	not soluble
MGSDKIHHHHHHMKESLRREYAPVKDLKPDDHIKMVQDIFSTITGKYDFLNHLLSFRRDVAWRRFAARKMHFSVTRRYLDVATGTADLALEVARRYPEVQVIGVDFVLEMLEKAVEKSARRDKIRDRVHFVQADALALPFADASFDVVGIAFGIRNIPGRLGALREFSRVLVDGGQVVVLEMQSPEQKMLRPLCTFYLRHVLPRLARRFTRNPAAYLYLADSILHFPSSDRFSGMMRDAGFADVRNYPLTLGITRLYVGRKGQ	not soluble
MPIRAMEKATAGKLLTRAEALSLLTEGDLLALGRLADAVRRRMHPENLVTFVVDRNVNYTNVCESKCKFCAFYRDEAAPDAYLLAEEAIFAKIAELVEHGGTQLLMQGGLHPQLGIDWFEDLFRGIKARFPQVQNHSLSPAEITQIATVSKLTIPETVRRLREAGLDSIPGGGAEILVDSVRQEISPRKIGWEGWAAVMSEAARQGMATTATMMFGSRETPEDIVEHLFRVRELQAAGGSFTAFIPWTYQPGNTELGGTGATGVEYLKVLALSRIVLDNIPSIQASWVTQGAAMAQVSLFFGANDLGGTMLEENVVAAAGCTFRMSREEMVELIREAGFRAAQRTTLYSIIREY	not soluble
MYTAIPQSGSPFPGSVQDPGLHVWRVEKLKPVPVAQENQGVFFSGDSYLVLHNGPEEVSHLHLWIGQQSSRDEQGACAVLAVQLDDYLGGRPVQHREVQGNESDLFMSYFPRGLKYQEGGVESGFKHVVPNEVVVQRLYQVKGAKNIRATERALNWDSFNTGDCFILDLGQNIFAWCGGKSNILERNKARDLALAIRDSERQGKAQVEIVTDGEEPAEMIQVLGPKPALKEGNPEEDLTADKANAQAAALYKVSDATGQMNLTKVADSSPFALELLISDDCFVLDNGLCGKIYIWKGRKANEKERQAALQVAEGFISRMQYAPNTQVEILPQGRESPIFKQFFKDWK	soluble
MYVDPKVTIETVKTLNTYLKTRAELRSTDHVVIAEKLDDNDKKATTRLKILTKFDEGRFGAIYMVQNESAVDNDVVSVGNSRFIMKTALRQLSSHQIVYRLSREITVLKTLWGQGNDPPPRVPPILHQGKILGVPFYVTSIFDVNLEKCREQMGGGTFCVQSAFHIAQEIFMALKFMHRRQLVHRDVKPTNIALSYQNRDQWYLIDYGDAISVGKKTPISPPDGVTLPFLSLEAHDLLVTSSYSSFQQDLESWFYVIVDLLKPLPWKDNNRIDKVALAKRDFMSRLPNNLTNLPSQILDIGQILKTESPYSEISKKLVEGLASVKTSSSEKWNPEWYDRSATRNLREKKIKNQPRSRESAEAEATAVQTTPTGSTELQNDRRDKSVYVSTIVTKVVDNRKKVSSSNSPTTVSTNKTAVIEDEEDVKKNSPIQKQQDRSVYFNDFPVAAVAQPETGKKKKYRYKMRKQ	not soluble
MAPTQAQKVLEAFEDFLKCLDLESYQEKYRPIKTVEQDLPRELNPLPDLYDHYWKPNGNTLHFPDFETFFDQWWEKRLRPLNEFIRKYFWGCSYEFVRLGLEARLYRTAVSIWTQFHFCYRWNASCQLRLTATWELDAQGIDAQIQAEDRLIGIQIKKETYRSEAREGNRFLRRREHSALLEVPYTLQSPEELERKAQRARTREEAYRLWVKIAHHLERLPNGFVIFRESYVKDLENFLKQNATTLSGLIPWDKVAREALTGP	soluble
MSIEVGNKLKGKVTGIKKFGAFVELPEGKSGLVHISEVADNYVENVEEHLSVGDEVDVKVLSIADDGKISLSIKKAKDRPRRQHTSKPSHQKPVQKAEDFEKKLSNFLKDSEDKLTSIKRQTESRRGGKGSRR	not soluble
MGLLTNDIIEESAWEALEKSILYYKGRPVGTVAAFDASVEALNYDQCFVRDFVSSALIFLIKGKTDIVRNFLEETLKLQPKDRQLDAYKPGRGLIPASFKVVSDNGEEYLEADFGEHAIARVTPVDSCLWWILLLRAYVVASKDFSLAYQPEFQTGIRLIMEICLANRFDMYPTLLVPDGACMIDRRLGIYGHPLELQVLFYAALRAAREMLICQGNQDVVEAIDNRLPLLCAHIRQHYWIDINRLNAIYRFKSEEYGKAAVNLFNIYVDSIPYYELDKWLPKKGGYLAGNVGPSQLDTRFFALGNLMAIISDLATEEQSQAIMTLIEDRWEDLVGDMPMKICYPALENEEYRIVTGCDPKNIPWSYHNAGSWPVLMWMLAAASVKAGKPYIAGKAIEIAQARLLEDEWPEYYDGKKGRLIGKQARKYQTWTIAGFLLAAELMKNPSLLSLISFDKLPSELVSRACEFEIGSVDASISRLEHHHHHH	soluble
HHHHHHGSGAVKLSVSYRNGTLFIMVMHIKDLVTEDGADPNPYVKTYLLPDTHKTSKRKTKISRKTRNPTFNEMLVYSGYSKETLRQRELQLSVLSAESLRENFFLGGITLPLKDFNLSKETVKWYQLTAATYL	soluble
MGSDKIHHHHHHETENVNCGQVLAGDTAYLKTVTGEYRIKIAENESLNMSCEAVMDRILSRDHVLRPLENGVAFARVVYMDYELIEKHVEMSYHPQNSFCFAIDKKAAKEFKERMQAMASCLPNVLLLPGRFFKNPIHDLSVDSHGHNTNLAHYNCLRALINKPGWNYAILLQNHDLITKSVYELEKIFNWLGGANDVAIRPELGRLDKKHFKWDPMSLKLFRNESEIDPVILNTTLKFAKGAVQSSLSRAAVDWMTRTVDLTTFIDQWNHGTYGVDEQFTQAFQISDFLGMPGHFTDKCIKKGIITEGITRFAQWTHGDQSKCASKKSRHGICIMGIEHLSMMAKSEHLMFNKVLPLFDYSIIECTAE	not soluble
MAIKGLDQAIDNLSRVRKNAIPAASAMTINRVATTAINQSSSQVARETKVRRKLVKERSRLKRATVRNPNAKIIVNRGDLPVIKLGIRMLGRRPNSILKAGQHRYQRAFIQRLKNGRWHVMQRVAGKNRYPIDVVKIPMAAPLKQAFDENVDRIRCERLPGELASALKQQLRIAIKR	not soluble
MANDGYFEPTQELSDETRDMHRAIISLREELEAVDLYNQRVNACKDKELKAILAHNRDEEKEHAAMLLEWIRRCDPAFDKELKDYLFTNKPIAHE	soluble
MKNNKPICFYDIYCFKPQECFKRNDINLLEDKLKRYSKITFLRNKENPEIIFLLGGDGSFINFINQQWKKNVKIVGINYGQLGFYSSYDSIKTINLDEIIDENMYYNPLLLKVSINNQNFFYCLNELSLFSNELVSFDISINDYPYEKFRGSGLLFVTPSGSTGKNKTAFGPIIFNNHENFIMTEIFPVNHLKYSSLNAPVVFRKDYKISLTNIKFKKSFSVAIDGNIINFSDKINDIKVETIQASSKIHGLNNFKKYIDKLNKSFIKGEMAGDPLEHHHHHH	soluble
MSLEQNFIRLYQDSFREHWALPALTNYDTKESYTYGEMAADIARRHLLFERIGLKPGDKVALLGKDSAEWCMAFMSVITYGAIIVPVLPDFNAADAASIVTHSDAKYLFVSDKIWETMDPSQLLLLCGAVSIRDYTVFLDRTEGGLLSQEVEGLSRSFSEHYPSGFTAEDIRYAEVSNDDLILLNYTSGTTGFSKGVMLRANNLAGNVTYVKDRDIMFRGETILCFLPLAHTYSCAFNFLTPLTIGVHVYILGKIPSPLTLIKAFADVRPSFVIMVPLIIEKLYHKAIAPKIKTPLIKFLLRLPVLKKVIHKSIRSKLIESFGGNFRQIIIGGAALNDEVAHFLYRIGFPLTVGYGMTECGPLISYEDHSLWLPGSCGKSLSIMEVRIDHSGQERHSDSGDVGEIQVRGENVCLGYYKNAELTAELFTPDGWMRTGDLGTIDSLGNIFIKGRSKTMLLGSNGQNIYPEEIESKINNLSYVLESIVTERDGRLIALIVPDRQAIEHKGISPDQAWAYIERSRAELNGQVGAYEKITAFVRHDEEFEKTPKHSIKRFLYTEGHHHHHH	soluble
GSHMSPKIVDAGTATVPHTMSTMKTADNRPASVYLKKDKPTLIKFWASWCPLCLSELGQAEKWAQDAKFSSANLITVASPGFLHEKKDGEFQKWYAGLNYPKLPVVTDNGGTIAQNLNISVYPSWALIGKDGDVQRIVKGSINEAQALALIRNPNADLGSLKHS	soluble
